Measured values reported in publication PMC8927147, “Global profiling of regulatory elements in the histone benzoylation pathway” (Nature Communications, 2022).

Columns and labels:
Sth1BD (S. cerevisiae) = Sth1BD (S. cerevisiae) (UniProt P32597); experiment: ITC; MicroCal ITC200, 20 °C, 25 mM Tris-HCl pH 8.0, 150 mM NaCl; peptides at 2.0 mM in the syringe titrated into reader domain at 0.1-0.2 mM in the cell; one-binding-site model
[1] = target: H3K14ac peptide (Saccharomyces cerevisiae) (UniProt P61830); conditions: cited from earlier work
[2] = target: H3K9ac peptide (Saccharomyces cerevisiae) (UniProt P61830); conditions: cited from earlier work
[3] = target: H3K9cr peptide (Saccharomyces cerevisiae) (UniProt P61830); conditions: cited from earlier work

Sequence of Taf14 YEATS (P35189 1-137): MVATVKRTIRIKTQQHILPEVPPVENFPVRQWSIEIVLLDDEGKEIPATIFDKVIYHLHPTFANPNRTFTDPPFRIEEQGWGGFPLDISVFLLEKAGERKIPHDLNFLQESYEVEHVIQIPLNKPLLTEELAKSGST
Sequence of Sth1BD (S. cerevisiae) (P32597 1248-1359): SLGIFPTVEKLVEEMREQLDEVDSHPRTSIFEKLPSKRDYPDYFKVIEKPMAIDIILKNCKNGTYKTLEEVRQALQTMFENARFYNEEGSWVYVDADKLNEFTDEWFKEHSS
Sequence of Sth1 Bromodomain (P32597 1254-1359): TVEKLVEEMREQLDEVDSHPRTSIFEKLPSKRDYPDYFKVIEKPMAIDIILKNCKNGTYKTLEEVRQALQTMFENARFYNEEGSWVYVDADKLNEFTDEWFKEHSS

H3K14bz peptide
Kd (Sth1BD (S. cerevisiae)): 89 µM

Sth1 Bromodomain (from UniProt P32597)
Kd [1]: 16 µM

Taf14 YEATS (from UniProt P35189)
Kd [2]: 334 µM
Kd [3]: 75 µM
